One block for each substance: values may come before it.
Assays:
BMP9 [1] = biological target: T1, BMP9 (UniProt Q9UK05 320-429); assay: cell-based or functional assay
T1 sequence (looked up): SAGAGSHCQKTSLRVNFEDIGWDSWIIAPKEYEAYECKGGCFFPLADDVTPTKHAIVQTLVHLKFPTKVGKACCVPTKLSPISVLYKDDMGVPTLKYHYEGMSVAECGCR

GDF11 [2] = biological target: T2, GDF11 (UniProt O95390 299-407); assay: cell-based or functional assay
T2 construct: also called Growth and differentiation factor-11; BMP11
T2 sequence (looked up): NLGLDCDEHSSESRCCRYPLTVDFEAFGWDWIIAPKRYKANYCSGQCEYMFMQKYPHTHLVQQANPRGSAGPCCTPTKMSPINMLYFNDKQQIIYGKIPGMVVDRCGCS

activin A [3] = biological target: T3, activin A (UniProt P08476 311-426); assay: cell-based or functional assay
T3 construct: Soluble ligand injected in SPR or added in the reporter assay
T3 sequence (looked up): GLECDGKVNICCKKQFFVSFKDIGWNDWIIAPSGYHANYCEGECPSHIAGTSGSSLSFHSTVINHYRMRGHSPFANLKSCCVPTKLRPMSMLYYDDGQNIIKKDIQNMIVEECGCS

BMP6 = biological target: T4, BMP6 (Homo sapiens, UniProt P22004); assay: Biacore-based binding assay (surface plasmon resonance), BMP6; conditions: 37° C., capture by anti-Fc antibody
T4 sequence (P22004 375-513): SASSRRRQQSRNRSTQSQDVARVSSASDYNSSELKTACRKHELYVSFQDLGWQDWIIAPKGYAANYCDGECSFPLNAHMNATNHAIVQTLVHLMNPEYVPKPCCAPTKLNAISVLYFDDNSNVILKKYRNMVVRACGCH
Procedure: (§1) A Biacore™-based binding assay was used to compare the ligand binding kinetics of an ActRIIB-Fc:ActRIIB(L79E)-Fc heterodimer with those of unmodified ActRIIB-Fc homodimer. Fusion proteins were captured onto the system using an anti-Fc antibody. Ligands were then injected and allowed to flow over the captured receptor protein at 37° C. Results are summarized in the table below, in which ligand off-rates (kd) most indicative of effective ligand traps are denoted in bold.

Activin A [4] = biological target: T5, Activin A (Homo sapiens, UniProt P08476); assay: Biacore-based binding assay (surface plasmon resonance), activin A; conditions: 37° C., capture by anti-Fc antibody
T5 sequence (P08476 311-426): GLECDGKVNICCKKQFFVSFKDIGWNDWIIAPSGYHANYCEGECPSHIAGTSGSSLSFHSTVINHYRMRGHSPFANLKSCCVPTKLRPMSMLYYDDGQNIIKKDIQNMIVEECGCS
Procedure: (§2) To determine ligand binding profiles of variant ActRIIB-Fc homodimers, a Biacore™-based binding assay was used to compare ligand binding kinetics of certain variant ActRIIB-Fc polypeptides. ActRIIB-Fc polypeptides to be tested were independently captured onto the system using an anti-Fc antibody. Ligands were then injected and allowed to flow over the captured receptor protein. ActRIIB-G1Fc was used as the control polypeptide.
as §2, with “protein.” for “protein. ActRIIB-G1Fc was used as the control polypeptide.”
as §1

GDF11 [5] = biological target: T6, GDF11 (Homo sapiens, UniProt O95390); assay: Biacore-based binding assay (surface plasmon resonance), GDF11; conditions: 37° C., capture by anti-Fc antibody
T6 sequence (O95390 299-407): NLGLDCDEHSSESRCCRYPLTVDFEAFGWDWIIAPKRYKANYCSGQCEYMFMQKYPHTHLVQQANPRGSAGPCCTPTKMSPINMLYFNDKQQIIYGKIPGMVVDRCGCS
Procedure: as §2
as §2, with “protein.” for “protein. ActRIIB-G1Fc was used as the control polypeptide.”
as §1

GDF8 = biological target: T7, GDF8 (Homo sapiens, UniProt O14793); assay: Biacore-based binding assay (surface plasmon resonance), GDF8; conditions: 37° C., capture by anti-Fc antibody
T7 sequence (O14793 267-375): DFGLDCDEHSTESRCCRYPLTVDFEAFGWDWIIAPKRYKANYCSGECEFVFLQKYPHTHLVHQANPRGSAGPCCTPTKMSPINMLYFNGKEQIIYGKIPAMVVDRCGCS
Procedure: as §2, §1

GDF3 = biological target: T8, GDF3 (Homo sapiens, UniProt Q9NR23); assay: Biacore-based binding assay (surface plasmon resonance), GDF3; conditions: 37° C., capture by anti-Fc antibody
T8 sequence (Q9NR23 251-364): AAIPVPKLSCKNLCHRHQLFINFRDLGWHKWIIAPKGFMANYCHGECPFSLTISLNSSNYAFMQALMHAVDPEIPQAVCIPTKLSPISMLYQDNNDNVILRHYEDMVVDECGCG
Procedure: as §1

BMP10 = biological target: T9, BMP10 (Homo sapiens, UniProt O95393); assay: Biacore-based binding assay (surface plasmon resonance), BMP10; conditions: 37° C., capture by anti-Fc antibody
T9 sequence (O95393 317-424): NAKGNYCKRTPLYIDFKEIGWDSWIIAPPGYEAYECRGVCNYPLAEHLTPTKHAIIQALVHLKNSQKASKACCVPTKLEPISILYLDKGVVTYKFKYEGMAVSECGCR
Procedure: as §2, §1

Activin B = biological target: T10, Activin B (Homo sapiens, UniProt P09529); assay: Biacore-based binding assay (surface plasmon resonance), activin B; conditions: 37° C., capture by anti-Fc antibody
T10 sequence (P09529 293-407): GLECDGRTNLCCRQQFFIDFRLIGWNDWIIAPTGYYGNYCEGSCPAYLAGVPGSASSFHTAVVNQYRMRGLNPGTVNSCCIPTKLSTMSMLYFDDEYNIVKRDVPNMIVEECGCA
Procedure: as §2, §1

BMP9 [6] = biological target: T11, BMP9 (Homo sapiens, UniProt Q9UK05); assay: Biacore-based binding assay (surface plasmon resonance), BMP9; conditions: 37° C., capture by anti-Fc antibody; Transient*: indeterminate due to transient nature of interaction
T11 sequence (Q9UK05 320-429): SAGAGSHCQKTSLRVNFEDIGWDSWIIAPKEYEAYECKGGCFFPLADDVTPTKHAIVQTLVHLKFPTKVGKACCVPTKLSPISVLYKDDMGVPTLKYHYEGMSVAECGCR
Procedure: as §2
as §2, with “protein.” for “protein. ActRIIB-G1Fc was used as the control polypeptide.”
as §1

ka BMP6 (BMP6): 1.3e+08 M⁻¹ s⁻¹ | kd BMP6 (BMP6): 0.0074 s⁻¹ | ka Activin A (Activin A [4]): 7.4e+06 M⁻¹ s⁻¹ | kd Activin A (Activin A [4]): 0.00019 s⁻¹ | ka GDF11 (GDF11 [5]): 4.1e+07 M⁻¹ s⁻¹ | kd GDF11 (GDF11 [5]): 0.00017 s⁻¹ | ka GDF8 (GDF8): 3.8e+06 M⁻¹ s⁻¹ | kd GDF8 (GDF8): 0.00026 s⁻¹ | ka GDF3 (GDF3): 1.4e+06 M⁻¹ s⁻¹ | kd GDF3 (GDF3): 0.0022 s⁻¹ | ka BMP10 (BMP10): 5.1e+07 M⁻¹ s⁻¹ | kd BMP10 (BMP10): 0.0002 s⁻¹ | ka Activin B (Activin B): 8.1e+06 M⁻¹ s⁻¹ | kd Activin B (Activin B): 6.6e-05 s⁻¹ | ka BMP9 (BMP9 [6]): 5e+06 M⁻¹ s⁻¹ | kd BMP9 (BMP9 [6]): 0.0013 s⁻¹
Substance: ActRIIB-Fc homodimer: unmodified ActRIIB-Fc homodimer, comparator of the heterodimer in Table 6

IC50 (ng/ml), A204 CAGA12 luciferase reporter assay (BMP9 [1]): 721 ng/mL | IC50 (ng/ml), A204 CAGA12 luciferase reporter assay (GDF11 [2]): 180 ng/mL | IC50 (ng/ml), A204 CAGA12 luciferase reporter assay (activin A [3]): 132 ng/mL
Substance: E50K (homodimeric ActRIIB-Fc construct) (Fc fusion)

IC50 (ng/ml), A204 CAGA12 luciferase reporter assay (BMP9 [1]): 3000 ng/mL | IC50 (ng/ml), A204 CAGA12 luciferase reporter assay (GDF11 [2]): 638 ng/mL | IC50 (ng/ml), A204 CAGA12 luciferase reporter assay (activin A [3]): 756 ng/mL
Substance: E50P (homodimeric ActRIIB-Fc construct) (Fc fusion)

IC50 (ng/ml), A204 CAGA12 luciferase reporter assay (BMP9 [1]): 10000 ng/mL | IC50 (ng/ml), A204 CAGA12 luciferase reporter assay (GDF11 [2]): 296 ng/mL | IC50 (ng/ml), A204 CAGA12 luciferase reporter assay (activin A [3]): 762 ng/mL
Substance: E52K (homodimeric ActRIIB-Fc construct) (Fc fusion)

The next lines start with the substance.

Substance: A24N (homodimeric ActRIIB-Fc construct) (Fc fusion)
IC50 (ng/ml), A204 CAGA12 luciferase reporter assay (BMP9 [1]): 409 ng/mL | IC50 (ng/ml), A204 CAGA12 luciferase reporter assay (GDF11 [2]): 99 ng/mL | IC50 (ng/ml), A204 CAGA12 luciferase reporter assay (activin A [3]): 128 ng/mL

Substance: E52A (homodimeric ActRIIB-Fc construct) (Fc fusion)
IC50 (ng/ml), A204 CAGA12 luciferase reporter assay (BMP9 [1]): 359 ng/mL | IC50 (ng/ml), A204 CAGA12 luciferase reporter assay (GDF11 [2]): 71 ng/mL | IC50 (ng/ml), A204 CAGA12 luciferase reporter assay (activin A [3]): 198 ng/mL

Source: US20240181007A1, “COMPOSITIONS AND METHODS FOR TREATING PULMONARY HYPERTENSION” (Acceleron Pharma Inc., priority 2021, published 2024)
